# Results reported in patent US20200397816A1, “METHODS TO TREAT INFLAMMATORY AND SMOOTH MUSCLE CELL PROLIFERATION DISORDERS” (THE TRUSTEES OF INDIANA UNIVERSITY, priority 2019, published 2020).
# “Also recorded” adds a separate entry of the source.
# B1: EMAP II: 6x-His tagged recombinant EMAP II, cleaved C-terminal peptide of AIMP1 (SEQ ID NO: 2), pro-inflammatory cytokine (protein)
# chain: IAGSADSKPIDVSRLDLRIGCIITARKHPDADSLYVEEVDVGEIAPRTVVSGLVNHVPLEQMQNRMVILLCNLKPAKMRGVLSQAMVMCASSPEKIEILAPPNGSVPGDRITFDAFPGEPDKELNPKKKIWEQIQPDLHTNDECVATYKGVPFEVKGKGVCRAQTMSNSGIK
# Assays:
# Tnf [1] = test: Tnf transcripts qRT-PCR in RAW 264.7 macrophages; type: cell-based, mouse; conditions: EMAP II time course
# Description: (§1) RAW 264.7 (ATCC) mouse macrophages and Human Embryonic Kidney (HEK) 293T cells were cultured in DMEM media with 10% fetal bovine serum […] and glutamine HEPES buffer and beta-mercaptoethanol were added to the growth medium used for RAW 264.7 macrophages. […]
# (§2) Total RNA was extracted with TriZol using standard RNA extraction protocol and reverse transcribed with SuperScript III Reverse Transcriptase (Thermo Fischer Scientific). SphK1, Tnf, Il6, EGR1, Gapdh, Hprt1 transcripts were quantified using PrimePCR SYBR Green assays from BioRad. […]
# (§3) Total RNA was extracted with TriZol using standard RNA extraction protocol and reverse transcribed with SuperScript III Reverse Transcriptase (Thermo Fisher Scientific). SPHK1, Tnf, Il6, EGR1, Gapdh, Hprt1 transcripts were quantified using PrimePCR SYBR Green assays from BioRad.
# TNF [2] = test: TNF in SMCs (data not shown); type: cell-based, human
# hPASMC = test: WST-1 cell proliferation assay in hPASMC; type: cell-based, human; conditions: SMCs; EMAP II 2 μg/mL 48 hours
# Description: (§4) Cell proliferation of hPASMCs was assessed using WST-1 cell proliferation reagent (Roche Diagnostic Corporation, IN) in a 96-well plate. Human PASMCs were seeded at 4200 cells/well density in 100 μl complete medium and serum starved for overnight. Cells were stimulated for 48 hours with 2 μg/mL EMAP II following the pretreatment with inhibitors. WST-1 reagent (10 μL) was added into each well and incubated for 90 minutes in a humidified atmosphere with 5% CO2 at 370 C. Absorbance was measured at 450 nm using microplate reader. Blank control well was with medium and WST-1 reagent without cultured cells. All samples were in duplicates. Cell proliferation was determined by subtracting the background reading from average of duplicate of each sample.
# as §4, with “37°” for “370”, “Blank control well was with medium and WST-1 reagent without cultured cells. All samples were in duplicates.” left out
# EGR1 = EGR1 protein western blot (whole cell lysates, nuclear fractions) in RAW 264.7 macrophages; type: cell-based, mouse; conditions: macrophages
# Description: RAW 264.7 (ATCC) mouse macrophages and Human Embryonic Kidney (HEK) 293T cells were cultured in DMEM media with 10% fetal bovine serum […] and glutamine HEPES buffer and beta-mercaptoethanol were added to the growth medium used for RAW 264.7 macrophages. Primary human pulmonary artery smooth muscle cells (hPASMC) purchased from Lonza (Walkersville, Md.) were cultured in complete growth medium containing smooth muscle growth media-2 (SmGM-2) with 10% FBS and growth factors provided as a kit by the supplier (Lonza, (Walkersville, Md.). THP-1 human monocyte cells were cultured in RPMI 1640 with 10% FBS and glutamine Cells were cultured in a humidified atmosphere with 5% CO2 at 370 C. For all studies passages 5-14 were used for RAW 264.7 and passages 5-10 were used for hPASMCs. For treatment studies, subconfluent cells plated in multi-well plates were serum starved and if required, pretreated for with inhibitors before stimulating with 2 μg/mL recombinant EMAP II.
# (§5) After appropriate treatments, protein lysates were prepared by using RIPA buffer supplemented with phosphatase and protease inhibitors (Thermo Fischer Scientific). Alpha-tubulin was used as a loading control. For nuclear and cytoplasmic fractionation, NE-PER kit from Thermo Fischer Scientific was used. Western blots were performed according to standard methods and quantified using densitometry using Image Studio Lite software from LI-COR Biosciences.
# RAW 264.7 (ATCC) mouse macrophages and HEK-293T (ATCC) cells were cultured in DMEM media with 10% (v/v) fetal bovine serum (FBS) and 2 mM glutamine HEPES buffer and beta-mercaptoethanol were added to the growth medium used for RAW 264.7 macrophages. Primary human pulmonary artery smooth muscle cells (hPASMC) purchased from Lonza (Walkersville, Md.) were cultured in complete growth medium containing smooth muscle growth media-2 (SmGM-2) with 10% FBS and growth factors provided as a kit by the supplier (Lonza, (Walkersville, Md.). THP-1 human monocyte cells were cultured in RPMI 1640 with 10% FBS and glutamine Cells were cultured in a humidified atmosphere with 5% CO2 at 37° C. For all studies passages 5-14 were used for RAW 264.7 and passages 5-10 were used for hPASMCs. For treatment studies, subconfluent cells plated in multi-well plates were serum starved and if required, pretreated with inhibitors before stimulation with 2 μg/mL recombinant EMAP II.
# as §5, with “Fisher” for “Fischer”, “For nuclear and cytoplasmic fractionation, NE-PER kit from Thermo Fischer Scientific was used.” left out
# SphK1 [3] = test: SphK1 protein western blot in hPASMC; type: cell-based, human; conditions: SMCs; EMAP II 6 hours
# Description: as §1
# (§6) After appropriate treatments, protein lysates were prepared by using RIPA buffer supplemented with phosphatase and protease inhibitors (Thermo Fischer Scientific). […] Western blots were performed according to standard methods and quantified using densitometry using Image Studio Lite software from LI-COR Biosciences. […]
# as §6, with “Fisher” for “Fischer”
# SphK1 [4] = test: SphK1 transcripts qRT-PCR in RAW 264.7 macrophages; type: cell-based, mouse
# Description: as §1, §2, §3
# SphK1 [5] = test: SphK1 protein western blot in RAW 264.7 macrophages; type: cell-based, mouse
# Description: as §1, §6
# After appropriate treatments, protein lysates were prepared by using RIPA buffer supplemented with phosphatase and protease inhibitors (Thermo Fisher Scientific). […] Western blots were performed according to standard methods and quantified using densitometry using Image Studio Lite software from LI-COR Biosciences.
# pSTAT3 (Y705) = test: EMAP II induced pSTAT3 western blot in RAW 264.7 macrophages; type: cell-based, mouse; conditions: macrophages; EMAP II 24 hours
# Description: as §5
# as §5, with “(Thermo Fisher” for “(Thermo Fischer”
molecule,measurement,setting,value
B1,Tnf transcription level,Tnf [1],increased
same,TNF induction,TNF [2],absent
same,cell proliferation (WST1),hPASMC,promotes cell proliferation
same,EGR1 expression in whole cell lysates,EGR1; 1 to 2 hours following EMAP II,significant upregulation
same,upregulation of nuclear expression of EGR1,"EGR1; EMAP II 2 μg/mL, at 2 hours",9 fold
same,SphK1 protein expression,SphK1 [3],significant overexpression; also recorded: significantly increased
same,induction of SphK1 transcription compared to control,SphK1 [4]; EMAP II treated macrophages,about 4 times
same,time of peak SphK1 transcription after EMAP II stimulation,SphK1 [4]; macrophages,3 h
same,protein expression of SphK1 compared to control,SphK1 [5]; EMAP II treated macrophages,about 1.7 times
same,SphK1 protein expression,"SphK1 [5]; macrophages, EMAP II 6 hours",significant overexpression; also recorded: significantly increased
same,STAT3 activation (pSTAT3),pSTAT3 (Y705),induced STAT3 activation
